From US20230174616A1 (UNIVERSITY OF SOUTHERN CALIFORNIA, published 2023)
*1 amine or outer side, *2 acyl side, *3 side chain or, on linkers, in order; H or OH if unused. Where no end group is shown, it is not given here. [ ]: non-standard residue; d: D form. Met(35S) = [35S]-methionine label, C[35S]CC[C@H](N[*:1])C(=O)[*:2]; 35S = [35S]-methionine radiolabel; Pra = C#CC[C@H](N)C(=O)O

T1: hPD-L2* (recombinant glycosylated human PD-L2 ectodomain, L20-T220, expressed in Expi293F cells) (human, UniProt Q9BQ51 20-220, glycosylated; Avi tag biotinylated in vitro with BirA)
T1 construct: range 20-220
T1 sequence: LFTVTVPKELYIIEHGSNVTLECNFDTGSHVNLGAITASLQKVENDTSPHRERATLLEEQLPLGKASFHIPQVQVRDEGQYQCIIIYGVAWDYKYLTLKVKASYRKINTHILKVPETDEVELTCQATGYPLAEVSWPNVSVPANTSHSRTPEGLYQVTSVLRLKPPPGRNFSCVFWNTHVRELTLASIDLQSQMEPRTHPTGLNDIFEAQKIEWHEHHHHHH


Target: mPD-L1 (extracellular domain of mouse PD-L1, A18 to H239, expressed in E. coli, biotinylated) (mouse, biotin on the epsilon-amino group of the Avi tag lysine)
Sequence (chain, as listed by the source limits assumed): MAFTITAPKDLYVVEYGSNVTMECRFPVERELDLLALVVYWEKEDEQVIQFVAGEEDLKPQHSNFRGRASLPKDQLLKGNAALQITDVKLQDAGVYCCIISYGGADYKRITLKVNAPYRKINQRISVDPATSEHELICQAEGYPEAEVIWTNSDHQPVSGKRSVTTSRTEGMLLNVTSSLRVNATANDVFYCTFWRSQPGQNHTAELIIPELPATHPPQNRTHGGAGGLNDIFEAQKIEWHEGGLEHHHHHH
Assay: radioactive pull-down of [35S]-labeled SPAM on immobilized target, normalized to hPD-L1

Row | binding result | Binder
1 | no binding | M(35S)PIFLDHILNKFWILHYAGSGSSGHHHHHHSS (Translated in reticulocyte lysate; also called [35S]-SPAM; radiolabeled SPAM peptide) [[35S]-labeled SPAM peptide (in vitro translated)]

Target: T2, biotinylated hPD-L1 (extracellular domain of human PD-L1, Ala18 to Thr239, expressed in E. coli, … (human, biotin on the epsilon-amino group of the Avi tag lysine (BirA)))
T2 construct: also called recombinant hPD-L1; non-glycosylated hPD-L1
Assay: radioactive pull-down of [35S]-labeled variant on immobilized hPD-L1, normalized to SPAM
Procedure: (§1) The conservation level for each doped residue in the X₁₇ library was obtained from next-generation sequencing data. […] FIG. 3 discloses SEQ ID NO: 180. […] Each measurement was carried out in triplicate and error bars show the standard deviation of the mean. (Students t-test; p value <0.05 (*), <0.01 (**), <0.005 (***)<0.001 (****))
[³⁵S]-labeled peptides were translated as described above by including 2 μCi labeled methionine (Perkin Elmer) per 10 pmol of template in the translation reaction. Each peptide was tested with a […] (for X₉-library derived peptides) (SEQ ID NO: 11) or a […] (for X17-library derived peptides) (SEQ ID NO: 12) C-terminal sequence. […] The supernatant was removed and was counted. The beads were subsequently washed three times with 1 mL of blocking buffer and the washes were also counted. Finally, the beads were resuspended in 1 mL of blocking buffer and were counted separately. The ratio of the counts remaining on the beads to the total counts added to the binding reaction (the sum of the counts for supernatant, washes, and beads) was calculated to determine the percent bound.

Row | binding result | Binder
2 | no binding | [Met(35S)]PIFLDHILNKFWILHYGGSGSSGHHHHHHSS [SPAM A18 variant (glycine substituted for alanine at position 18)]

Target: T2, biotinylated hPD-L1 (extracellular …)
Assay: radioactive pull-down of [35S]-labeled alanine variant on immobilized hPD-L1, normalized to SPAM
Procedure: as §1
[³⁵S]-labeled peptides were translated as described above by including 2 μCi labeled methionine (Perkin Elmer) per 10 pmol of template in the translation reaction. Each peptide was tested with a […] (for X₉-library derived peptides) (SEQ ID NO: 11) or a […] (for X17-library derived peptides) (SEQ ID NO: 12) C-terminal sequence. Binding assays using [35S]-labeled peptide-RNA fusions were similarly performed on hPD-L1 immobilized beads using 75 pmol hPD-L1 immobilized on streptavidin or neutravidin agarose beads (Thermo Fisher scientific) in blocking buffer (20 mM HEPES-KOH pH 7.5, 150 mM NaCl, 0.2% (v/v) Tween-20, 1 mg/mL BSA, 50 μg/mL tRNA and 0.02 mM biotin) at 4° C. for 1 h. The supernatant was removed and was counted.

Row | Binder | binding result
3 | [Met(35S)]PIFLAHILNKFWILHYAGSGSSGHHHHHHSS (in vitro translated alanine-scan variant) [SPAM D6A variant] | no binding
4 | [Met(35S)]PIFLDHILNKFWALHYAGSGSSGHHHHHHSS (in vitro translated alanine-scan variant) [SPAM I14A variant] | no binding
5 | M(35S)AIFLDHILNKFWILHYAGSGSSGHHHHHHSS (in vitro translated alanine-scan variant) [SPAM P2A variant] | binds
6 | [Met(35S)]PIFLDAILNKFWILHYAGSGSSGHHHHHHSS (in vitro translated alanine-scan variant) [SPAM H7A variant] | no binding
7 | [Met(35S)]PIFLDHILNKFWILAYAGSGSSGHHHHHHSS (in vitro translated alanine-scan variant) [SPAM H16A variant] | no binding
8 | M(35S)PIFLDHALNKFWILHYAGSGSSGHHHHHHSS (in vitro translated alanine-scan variant) [SPAM I8A variant] | binds
9 | [Met(35S)]PIALDHILNKFWILHYAGSGSSGHHHHHHSS (in vitro translated alanine-scan variant) [SPAM F4A variant] | binds

Continued, values first:

Row | binding result | Binder
10 | no binding | M(35S)PIFLDHILNAFWILHYAGSGSSGHHHHHHSS (in vitro translated alanine-scan variant) [SPAM K11A variant]
11 | no binding | M(35S)PIFLDHILNKFAILHYAGSGSSGHHHHHHSS (in vitro translated alanine-scan variant) [SPAM W13A variant]
12 | binds | M(35S)PIFADHILNKFWILHYAGSGSSGHHHHHHSS (in vitro translated alanine-scan variant) [SPAM L5A variant]
13 | binds | M(35S)PAFLDHILNKFWILHYAGSGSSGHHHHHHSS (in vitro translated alanine-scan variant) [SPAM I3A variant]
14 | no binding | M(35S)PIFLDHILAKFWILHYAGSGSSGHHHHHHSS (in vitro translated alanine-scan variant) [SPAM N10A variant]
15 | no binding | [Met(35S)]PIFLDHILNKAWILHYAGSGSSGHHHHHHSS (in vitro translated alanine-scan variant) [SPAM F12A variant]
16 | binds | M(35S)PIFLDHIANKFWILHYAGSGSSGHHHHHHSS (in vitro translated alanine-scan variant) [SPAM L9A variant]
17 | no binding | M(35S)PIFLDHILNKFWIAHYAGSGSSGHHHHHHSS (in vitro translated alanine-scan variant) [SPAM L15A variant]

Target: T1, hPD-L2* (recombinant glycosylated human …)
Assay: radioactive pull-down of [35S]-labeled SPAM on immobilized target, normalized to hPD-L1 [cont.) D]

Row | binding result | Binder
18 | no binding | M(35S)PIFLDHILNKFWILHYAGSGSSGHHHHHHSS (Translated in reticulocyte lysate; also called [35S]-SPAM; radiolabeled SPAM peptide) [[35S]-labeled SPAM peptide (in vitro translated)]

Target: T2, biotinylated hPD-L1 (extracellular …)
Assay: SPR (Biacore T-100), biotinylated hPD-L1 on SA chip, mPD-1 0.15-29 uM as analyte, 25 C, one-site saturation fit
Procedure: SPR analysis was performed on a Biacore T-100 at the USC Nanobiophysics core. […] The response values were fit to a one-site saturation binding model in GraphPad Prism to obtain an equilibrium binding constant.

Row | Kd [µM] | Binder
19 | 3.2 | mPD-1 (extracellular domain of mouse PD-1, L15 to S157, C83S, HA tag and His tag, expressed in E. coli) (receptor, also called HA-tagged mPD-1; murine variant of PD-1) MALEVPNGPWRSLTFYPAWLTVSEGANATFTCSLSNWSEDLMLNWNRLSPSNQTEKQAAFSNGLSQPVQDARFQIIQLPNRHDFHMNILDTRRNDSGIYLCGAISLHPKAKIEESPGAELVVTERILETSTRYPSGGYPYDVPDYALEHHHHHH

Target: T2, biotinylated hPD-L1 (extracellular …)
Assay: ELISA/IP: 100 nM biotinylated hPD-L1 on streptavidin magnetic beads, SPAM 0.1, 1, 10 uM; competitor 100 nM HA-tagged mPD-1 detected with anti-HA-HRP
Procedure: For ELISA/IP assays, 20 μL of MyOne™ Streptavidin T1 magnetic beads Dynabeads™ (Thermo Fisher Scientific) were loaded with 100 nM biotinylated hPD-L1 in assay buffer (20 mM HEPES-KOH pH 7.5, 150 mM NaCl, 0.2% (v/v) Tween-20, 1 mg/mL BSA and 50 μg/mL tRNA) at 4° C. […] The samples were then washed and incubated with a 1:5,000 dilution of HRP conjugated anti-HA antibody (Pierce HA Antibody, Rockford. Ill., USA) for 1 h at 4° C. The beads were washed again and developed with TMB Substrate Kit (Thermo Scientific) for 30 minutes and the reactions stopped by adding 100 μL of […] sulfuric acid.

Row | IC50 [nM] | Binder
20 | ~1100 | MPIFLDHILNKFWILHYASG[Pra]-NH2 [SPAM peptide (synthetic, MPIFLDHILNKFWILHYASG-Pra)]

Target: T3, mPD-L1 expressed on CHO cells (CHO-mPD-L1) (mouse, UniProt Q9EP73 19-290)
T3 construct: whole, on cells; The construct in the CHO cells is not described
T3 sequence (Q9EP73 19-290): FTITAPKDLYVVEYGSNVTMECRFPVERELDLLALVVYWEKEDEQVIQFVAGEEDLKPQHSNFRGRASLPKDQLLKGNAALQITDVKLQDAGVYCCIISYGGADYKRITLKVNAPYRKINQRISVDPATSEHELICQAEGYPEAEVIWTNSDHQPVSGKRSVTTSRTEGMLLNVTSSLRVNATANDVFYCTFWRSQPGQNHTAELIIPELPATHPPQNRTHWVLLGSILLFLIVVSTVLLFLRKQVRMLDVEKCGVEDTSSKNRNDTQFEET
Assay: flow cytometry competition on CHO-mPD-L1 cells: pre-incubation with the peptide, then Fluorescein-16373; % of median fluorescence intensity [cont.) D]
Text: Bars represent means±SD, n=3. One-way ANOVA with Dunnett's multiple comparison's test p value <0.05 (*), <0.01 (**), <0.001 (***).
Cells were then washed three times with cold serum free DMEM. Cells were subsequently processed by flow cytometry with a BD FACSCalibur system using the FL1 channel. FlowJo v10.1 was used to gate to the major population and median FL1 fluorescence reported.

Row | binding result | Binder
21 | no binding (tested: 10 µM) | MPIFLDHILNKFWILHYASG[Pra]-NH2 [SPAM peptide (synthetic, MPIFLDHILNKFWILHYASG-Pra)]
